Laboratory results taken from patent US20140314789.

Target: Flag-tagged calcineurin-defective (ΔCalna) CRTC2 (UniProt Q3U182)
Sequence (Q3U182 whole entry, looked up, stated change not applied): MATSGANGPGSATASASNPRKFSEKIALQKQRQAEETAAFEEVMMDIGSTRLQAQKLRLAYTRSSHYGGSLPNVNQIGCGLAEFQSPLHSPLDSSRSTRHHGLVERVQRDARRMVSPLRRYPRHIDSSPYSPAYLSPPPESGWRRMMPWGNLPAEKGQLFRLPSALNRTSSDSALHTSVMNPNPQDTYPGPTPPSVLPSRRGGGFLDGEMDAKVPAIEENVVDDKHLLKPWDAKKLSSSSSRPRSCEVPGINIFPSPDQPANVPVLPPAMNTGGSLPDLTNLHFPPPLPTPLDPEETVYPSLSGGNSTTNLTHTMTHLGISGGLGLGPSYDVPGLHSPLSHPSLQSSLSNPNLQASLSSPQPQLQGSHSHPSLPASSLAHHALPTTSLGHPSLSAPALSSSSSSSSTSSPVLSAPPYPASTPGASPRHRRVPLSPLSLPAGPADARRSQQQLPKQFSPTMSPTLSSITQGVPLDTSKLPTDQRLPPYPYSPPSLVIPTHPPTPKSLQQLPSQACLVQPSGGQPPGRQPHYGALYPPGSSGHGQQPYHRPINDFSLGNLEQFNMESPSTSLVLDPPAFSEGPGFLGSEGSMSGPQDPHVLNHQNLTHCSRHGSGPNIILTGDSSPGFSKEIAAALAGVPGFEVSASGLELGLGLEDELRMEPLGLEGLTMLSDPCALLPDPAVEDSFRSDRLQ

With HA-tagged calcineurin A (Calna) the “glucagon-dependent dephosphorylation of CRTC2, nuclear translocation, CRE-luc activation” value was “mutation of both motifs disrupted the glucagon-dependent dephosphorylation of CRTC2 (FIG. 33B) and prevented its nuclear translocation (FIG. 38C), thereby down-regulating CRE-luc activation”.
